Results from US20110117113A1, “IMMUNOGLOBULIN SINGLE VARIABLE DOMAIN DIRECTED AGAINST HUMAN CXCR4 AND OTHER CELL ASSOCIATED PROTEINS AND METHODS TO GENERATE THEM” (priority 2009, published 2011).

Key:
[1] = target: T1, CXCR4 mutant 1 (F189V) (Homo sapiens, UniProt P61073, F189V); assay: Footprint assay, flow cytometry binding to CXCR4 F189V on Hek293T cells; details: Myc-tag detection, 10 nM and 100 nM Nanobody, average n = 3, relative to hCXCR4
T1 construct: expressed in transfected cells; host or cells: Hek293T, transient, pcDNA3.1
T1 sequence (P61073 whole entry F189V): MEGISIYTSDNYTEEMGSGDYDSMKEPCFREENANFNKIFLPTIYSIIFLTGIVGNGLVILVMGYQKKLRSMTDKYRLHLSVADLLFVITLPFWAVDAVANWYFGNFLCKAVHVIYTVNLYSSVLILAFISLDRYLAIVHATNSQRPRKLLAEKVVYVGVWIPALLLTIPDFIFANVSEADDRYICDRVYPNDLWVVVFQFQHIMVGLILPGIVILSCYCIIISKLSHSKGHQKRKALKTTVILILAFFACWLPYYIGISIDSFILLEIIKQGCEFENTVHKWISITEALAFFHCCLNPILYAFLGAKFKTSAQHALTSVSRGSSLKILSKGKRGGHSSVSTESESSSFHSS
Source text: (§1) Based on the data from example 1.8, we introduced 3 single point-mutations in ECL2 of CXCR4 that allowed to discriminate between 238D2 and 238D4-like epitopes: V196E (specifically disturbing D2 binding)-SEQ ID NO: 20, D187V (specifically disturbing D4 binding)-SEQ ID NO: 21, F189V (disturbing binding of both D2 and D4)-SEQ ID NO: 19. […] For the epitope mapping, transient transfections of the three CXCR4 mutants and wildtype human CXCR4 in the pcDNA3.1 vector were done in Hek293T cells, after which Nanobody binding of different families was assessed by flow cytometry using detection of the Myc-tag, followed by secondary anti-mouse PE. Two concentrations of Nanobody were tested, 10 nM and 100 nM, and experiment was repeated with essentially the same results. Binding of the Nanobodies to HEK293T hCXCR4 cells was used for normalization using the following formulas:
(§2) Percentage of binding to the mutant receptors was calculated for each Nanobody concentration, and a position was considered as critical when less than 25% residual binding (average of n=3) was observed (Table C-5). […] Nanobodies could be grouped according to their different binding patterns, not only in “238D2-like” or “epitope A binders” and “238D4-like” or “epitope B binders” but also into other new groups.

[2] = target: T2, CXCR4 mutant 3 (D187V) (Homo sapiens, UniProt P61073, D187V); assay: Footprint assay, flow cytometry binding to CXCR4 D187V on Hek293T cells; details: Myc-tag detection, 10 nM and 100 nM Nanobody, average n = 3, relative to hCXCR4
T2 construct: expressed in transfected cells; host or cells: Hek293T, transient, pcDNA3.1
T2 sequence (P61073 whole entry D187V): as the sequence (P61073 whole entry F189V) above, with D187V, V189F counted along it
Source text: as §1, §2

[3] = target: T3, CXCR4 mutant 2 (V196E) (Homo sapiens, UniProt P61073, V196E); assay: Footprint assay, flow cytometry binding to CXCR4 V196E on Hek293T cells; details: Myc-tag detection, 10 nM and 100 nM Nanobody, average n = 3, relative to hCXCR4
T3 construct: expressed in transfected cells; host or cells: Hek293T, transient, pcDNA3.1
T3 sequence (P61073 whole entry V196E): as the sequence (P61073 whole entry F189V) above, with V189F, V196E counted along it
Source text: as §1, §2

[4] = target: T4, CXCR4 (N119A) (Homo sapiens, UniProt P61073, N119A); assay: Basal inositol phosphate accumulation in HEK293T cells transiently expressing CXCR4 (N119A); format: cell-based; details: ligand-induced alteration of basal inositol phosphate accumulation
T4 construct: expressed in transfected cells; host or cells: HEK293T, transient; membranes in A4, whole cells in A5
T4 sequence (P61073 whole entry N119A): as the sequence (P61073 whole entry F189V) above, with N119A, V189F counted along it
Source text: The functional profile of monovalent Nanobodies 238D2 and 238D4 as well as their bivalent fusion products L3 and L8 on CXCR4 (N119A) were investigated by measurement of the ligand-induced alteration of the basal inositol phosphate accumulation. HEK293T cells transiently expressing CXCR4 (N119A) show a 3-8 times higher basal rate of inositol phosphate accumulation compared to wild type CXCR4 or mock (which are virtually at the same level). […] The nanobody-induced reduction of basal inositol phosphate accumulation was antagonized by the selective neutral CXCR4 antagonist plerixafor confirming that the observed […] effects are mediated via CXCR4 (N119A).

[5] = target: T5, wildtype human CXCR4 (pcDNA3.1-CXCR4, expressed in HEK293T) (human, UniProt P61073 1-352); assay: competition with [125I]-CXCL12, HEK293T-CXCR4 membranes
T5 construct: whole, on cells; also called hCXCR4; HEK293T CXCR4
T5 sequence (P61073 whole entry): as the sequence (P61073 whole entry F189V) above, with V189F counted along it

[6] = target: all CXCR4 library clones containing a mutation at S178; assay: immunofluorescence, average over all clones with a mutation at S178
[7] = target: T6, CXCR4 mutation library clone 3728 (D187A, Y157C) (human, UniProt P61073 1-352); assay: immunofluorescence on HEK-293T expressing the clone, normalised to wild type
T6 chain: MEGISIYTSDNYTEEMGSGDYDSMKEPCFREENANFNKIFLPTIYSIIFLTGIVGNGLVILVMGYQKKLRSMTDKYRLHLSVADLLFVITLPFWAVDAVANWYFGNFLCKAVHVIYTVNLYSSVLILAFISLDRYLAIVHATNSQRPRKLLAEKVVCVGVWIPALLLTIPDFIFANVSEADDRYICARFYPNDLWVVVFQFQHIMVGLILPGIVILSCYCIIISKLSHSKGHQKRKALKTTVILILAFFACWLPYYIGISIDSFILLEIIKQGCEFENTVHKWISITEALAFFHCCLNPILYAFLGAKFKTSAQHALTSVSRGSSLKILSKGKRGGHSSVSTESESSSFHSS

[8] = target: T7, CXCR4 mutation library clone 2834 (E179V, G258E) (human, UniProt P61073 1-352); assay: as above
T7 chain: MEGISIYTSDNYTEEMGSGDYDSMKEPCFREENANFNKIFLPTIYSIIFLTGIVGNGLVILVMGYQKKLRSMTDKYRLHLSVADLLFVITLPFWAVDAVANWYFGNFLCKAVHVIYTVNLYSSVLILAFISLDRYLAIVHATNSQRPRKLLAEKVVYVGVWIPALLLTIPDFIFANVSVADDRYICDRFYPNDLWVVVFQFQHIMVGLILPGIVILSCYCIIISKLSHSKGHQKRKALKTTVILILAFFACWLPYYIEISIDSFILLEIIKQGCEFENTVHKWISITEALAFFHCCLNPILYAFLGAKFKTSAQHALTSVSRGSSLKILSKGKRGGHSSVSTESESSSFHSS

[9] = target: T5, wildtype human CXCR4 (pcDNA3.1-CXCR4, …); assay: competition with [125I]-238D4, HEK293T-CXCR4 membranes
[10] = target: T5, wildtype human CXCR4 (pcDNA3.1-CXCR4, …); assay: competition with [125I]-238D2, HEK293T-CXCR4 membranes
[11] = target: all CXCR4 library clones containing a mutation at E179; assay: immunofluorescence, average over all clones with a mutation at E179
[12] = target: all CXCR4 library clones containing a mutation at F189; assay: immunofluorescence, average over all clones with a mutation at F189

B1: 238D2: monovalent anti CXCR4 Nanobody, SEQ ID NO: 2 (protein)
VHH: EVQLVESGGGLVQTGGSLRLSCAASGFTFSSYAMSWVRQAPGKGLEWVSGIKSSGDSTRYAGSVKGRFTISRDNAKNMLYLQMYSLKPEDTAVYYCAKSRVSRTGLYTYDNRGQGTQVTVSS
modifications: Nanobody
[1]
  HEK293T F189V binding: − (<=25% binding to mutant rel. to hCXCR4)
[2]
  HEK293T D187V binding: + (>75% binding to mutant rel. to hCXCR4)
[3]
  Hek293T V196E binding: − (<=25% binding to mutant rel. to hCXCR4)
[4]
  functional profile on CXCR4 (N119A) (in words): Only antagonistic but no significant inverse agonistic activities

B2: Nanobody 238D4 (VHH)
VHH: EVQLMESGGGLVQAGGSLRLSCAASGRTFNNYAMGWFRRAPGKEREFVAAITRSGVRSGVSAIYGDSVKDRFTISRDNAKNTLYLQMNSLKPEDTAVYTCAASAIGSGALRRFEYDYSGQGTQVTVSS
[5]
  pKi: 8.22 pKi
[6]
  average nanobody reactivity: 23.2%
[7]
  % immunofluorescence: -16.4%
[8]
  % immunofluorescence: 19.5%
[9]
  pKi: 8.55 pKi
[10]
  pKi: 8.8 pKi
[11]
  average nanobody reactivity: 13.8%
[12]
  average nanobody reactivity: 0.2%
